By Kd is commonly meant the free concentration of one partner at which half of the binding sites on the other are occupied at equilibrium, for simple one-to-one binding.

For assay [1], the target named is PHF2(1–451), N-terminal half of human PHF2 with the PHD and Jumonji domains (residues 1–451) (human) (UniProt O75151). Description: ITC. Background: ITC needs no label: the signal is the heat of the interaction.
Assay [2] deals with PHF2(1–70), PHD domain of human PHF2 (residues 1–70) (human) (UniProt O75151). Description: ITC.
Sequence of PHF2(1–70), PHD domain of human PHF2 (residues 1–70) (human) (O75151 1-70): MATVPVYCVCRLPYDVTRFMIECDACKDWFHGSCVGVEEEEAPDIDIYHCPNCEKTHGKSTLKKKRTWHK

Sequence of PHF2(1–451), N-terminal half of human PHF2 with the PHD and Jumonji domains (residues 1–451) (human) (O75151 1-451): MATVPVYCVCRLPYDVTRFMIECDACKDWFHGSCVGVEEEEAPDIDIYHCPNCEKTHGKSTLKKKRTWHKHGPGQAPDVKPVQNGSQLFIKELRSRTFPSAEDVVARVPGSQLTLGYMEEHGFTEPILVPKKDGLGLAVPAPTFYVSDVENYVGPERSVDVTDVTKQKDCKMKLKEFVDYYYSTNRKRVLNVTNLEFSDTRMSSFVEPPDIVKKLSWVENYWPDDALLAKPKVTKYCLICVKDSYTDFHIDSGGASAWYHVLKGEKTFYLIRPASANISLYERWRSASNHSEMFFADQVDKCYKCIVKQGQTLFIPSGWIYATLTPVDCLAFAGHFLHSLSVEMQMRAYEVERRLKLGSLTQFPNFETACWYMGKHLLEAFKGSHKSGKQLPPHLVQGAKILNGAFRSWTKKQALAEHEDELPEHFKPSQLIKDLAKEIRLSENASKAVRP

Consider “VRK1(1-12)K4me3 peptide (12-mer of the N-terminus of vaccinia-related kinase 1, trimethylated at lysine 4)”, for which the equilibrium dissociation constant (Kd) in assay [1] was 42 nM; in assay [2], 900 nM.

Source of the values: article PMC9898751.
